Test results published in the supplement of paper PMC9112550, “Optimization of the antimicrobial peptide Bac7 by deep mutational scanning” (BMC Biology, 2022).

System: Escherichia coli TOP10
Test: shrunken log2 fold change of peptide-encoding DNA abundance (4.5 h post-induction vs induction); higher = less antimicrobial activity (less host growth inhibition)
Settings: time post-induction: 4.5 h; library: site-saturation at positions 5, 18, 19, 20
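Further: peptides expressed intracellularly from a pBAD plasmid library in pooled LB shake-flask culture, induced with 0.3% L-arabinose, DNA abundance read by NGS, three biological replicates, DESeq2 with apeglm shrinkage.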

Sequence | shrunken log2 fold change
RRIRLRPPRLPRPRPRPMRSPRP | 0.0143
RRIRFRPPRLPRPRPRPDHTPRP | -0.318
RRIRSRPPRLPRPRPRPATKPRP | 0.161
RRIRHRPPRLPRPRPRPFCCPRP | -0.0718
RRIRARPPRLPRPRPRPFCLPRP | 0.0753
RRIRCRPPRLPRPRPRPDIPPRP | -0.331
RRIRFRPPRLPRPRPRPEKAPRP | 0.0584
RRIRPRPPRLPRPRPRPIIIPRP | -0.593
RRIRYRPPRLPRPRPRPHTVPRP | -1.21
RRIRERPPRLPRPRPRPFDIPRP | -0.103
RRIRRRPPRLPRPRPRPCAVPRP | 0.0527
RRIRKRPPRLPRPRPRPALFPRP | 0.497
RRIRLRPPRLPRPRPRPCLHPRP | -0.113
RRIRVRPPRLPRPRPRPGSVPRP | -0.269
RRIRIRPPRLPRPRPRPMYRPRP | -0.0946
RRIRYRPPRLPRPRPRPNAFPRP | -0.158
RRIRGRPPRLPRPRPRPCKIPRP | -0.189
RRIRKRPPRLPRPRPRPEFNPRP | 0.15
RRIRQRPPRLPRPRPRPCHFPRP | 0.173
RRIRFRPPRLPRPRPRPKDNPRP | -0.000409
RRIRSRPPRLPRPRPRPWACPRP | 0.0189
RRIRLRPPRLPRPRPRPGFEPRP | 0.168
RRIRGRPPRLPRPRPRPFSRPRP | 0.612
RRIRDRPPRLPRPRPRPPSMPRP | -0.147
RRIRFRPPRLPRPRPRPGERPRP | 0.266

Sequence | shrunken log2 fold change
RRIRNRPPRLPRPRPRPQPGPRP | 0.285
RRIRHRPPRLPRPRPRPLCNPRP | -0.337
RRIRMRPPRLPRPRPRPIHKPRP | 0.0536
RRIRSRPPRLPRPRPRPSFVPRP | -0.705
RRIRKRPPRLPRPRPRPSSIPRP | -0.0636
RRIRRRPPRLPRPRPRPWYRPRP | -0.151
RRIRARPPRLPRPRPRPHFFPRP | 1.8
RRIRMRPPRLPRPRPRPSDEPRP | 0.958
RRIRVRPPRLPRPRPRPIRGPRP | 0.0551
RRIRPRPPRLPRPRPRPEFDPRP | 0.33
RRIRFRPPRLPRPRPRPATRPRP | 0.193
RRIRKRPPRLPRPRPRPWIAPRP | 0.285
RRIRTRPPRLPRPRPRPQNSPRP | -1.19
RRIRERPPRLPRPRPRPIPAPRP | -0.0833
RRIRNRPPRLPRPRPRPNDNPRP | -0.734
RRIRDRPPRLPRPRPRPNAGPRP | 0.149
RRIRVRPPRLPRPRPRPDYFPRP | -0.163
RRIRVRPPRLPRPRPRPWDCPRP | -0.0389
RRIRVRPPRLPRPRPRPQNYPRP | -0.285
RRIRMRPPRLPRPRPRPECRPRP | 2.38
RRIRGRPPRLPRPRPRPHNHPRP | -0.27
RRIRNRPPRLPRPRPRPGSTPRP | -0.145
RRIRHRPPRLPRPRPRPWEPPRP | -0.0767
RRIRMRPPRLPRPRPRPRQYPRP | -0.0556
RRIRVRPPRLPRPRPRPLLMPRP | -0.325

Sequence | shrunken log2 fold change
RRIRERPPRLPRPRPRPWNGPRP | 0.208
RRIRHRPPRLPRPRPRPLFGPRP | -0.0987
RRIRCRPPRLPRPRPRPPIDPRP | -0.071
RRIRERPPRLPRPRPRPVEEPRP | -0.127
RRIRFRPPRLPRPRPRPVNHPRP | -0.384
RRIRGRPPRLPRPRPRPEHCPRP | 0.549
RRIRFRPPRLPRPRPRPGYPPRP | 0.0384
RRIRMRPPRLPRPRPRPIGVPRP | 0.0547
RRIRYRPPRLPRPRPRPLWHPRP | -0.48
RRIRPRPPRLPRPRPRPTSKPRP | 0.188
RRIRIRPPRLPRPRPRPWAIPRP | -0.0196
RRIRKRPPRLPRPRPRPINAPRP | 0.088
RRIRKRPPRLPRPRPRPPEPPRP | 0.842
RRIRLRPPRLPRPRPRPDASPRP | 0.101
RRIRWRPPRLPRPRPRPSTLPRP | -0.253
RRIRARPPRLPRPRPRPVVGPRP | 0.5
RRIRGRPPRLPRPRPRPIPWPRP | 0.361
RRIRFRPPRLPRPRPRPVGEPRP | 0.29
RRIRSRPPRLPRPRPRPAHQPRP | -0.0659
RRIRTRPPRLPRPRPRPYNVPRP | -0.297
RRIRSRPPRLPRPRPRPIVWPRP | -0.0774
RRIRVRPPRLPRPRPRPEMTPRP | 0.0232
RRIRVRPPRLPRPRPRPGSPPRP | 0.187
RRIRNRPPRLPRPRPRPRDAPRP | -0.163
RRIRCRPPRLPRPRPRPEGCPRP | 3.02

Sequence | shrunken log2 fold change
RRIRVRPPRLPRPRPRPWLPPRP | -0.59
RRIRMRPPRLPRPRPRPSSMPRP | -0.0815
RRIRRRPPRLPRPRPRPQKWPRP | 0.136
RRIRNRPPRLPRPRPRPAKIPRP | -0.405
RRIRRRPPRLPRPRPRPEIDPRP | -0.00263
RRIRERPPRLPRPRPRPQTAPRP | -0.0922
RRIRARPPRLPRPRPRPSRRPRP | 0.297
RRIRDRPPRLPRPRPRPNCGPRP | 0.387
RRIRWRPPRLPRPRPRPNHLPRP | -0.281
RRIRGRPPRLPRPRPRPFHHPRP | -0.126
RRIRPRPPRLPRPRPRPRLMPRP | 0.337
RRIRIRPPRLPRPRPRPCCWPRP | 0.0865
RRIRLRPPRLPRPRPRPLNRPRP | -0.317
RRIRWRPPRLPRPRPRPHKPPRP | -0.119
RRIRQRPPRLPRPRPRPVLLPRP | -0.154
RRIRWRPPRLPRPRPRPLDKPRP | 0.352
RRIRRRPPRLPRPRPRPQEPPRP | 0.0839
RRIRKRPPRLPRPRPRPKHWPRP | 0.162
RRIRNRPPRLPRPRPRPAWAPRP | -0.0271
RRIRRRPPRLPRPRPRPTIWPRP | 0.251
RRIRDRPPRLPRPRPRPYGTPRP | -0.234
RRIRDRPPRLPRPRPRPDVQPRP | 0.0508
RRIRQRPPRLPRPRPRPRWDPRP | 0.29
RRIRLRPPRLPRPRPRPLMYPRP | -0.327
RRIRVRPPRLPRPRPRPKPHPRP | 0.264

Sequence | shrunken log2 fold change
RRIRVRPPRLPRPRPRPHAEPRP | 0.0163
RRIRWRPPRLPRPRPRPVPWPRP | 0.374
RRIRMRPPRLPRPRPRPRMSPRP | 0.353
RRIRDRPPRLPRPRPRPTKKPRP | -0.0587
RRIRHRPPRLPRPRPRPFYKPRP | -0.774
RRIRHRPPRLPRPRPRPCTSPRP | -0.0185
RRIRIRPPRLPRPRPRPNTVPRP | -1.09
RRIRHRPPRLPRPRPRPYVHPRP | -0.312
RRIRRRPPRLPRPRPRPQGIPRP | -0.00228
RRIRRRPPRLPRPRPRPQDTPRP | -0.321
RRIRIRPPRLPRPRPRPAPDPRP | 0.248
RRIRKRPPRLPRPRPRPTNVPRP | 0.221
RRIRERPPRLPRPRPRPLECPRP | -0.498
RRIRARPPRLPRPRPRPFLMPRP | 0.791
RRIRGRPPRLPRPRPRPWYKPRP | -0.015
RRIRVRPPRLPRPRPRPFDCPRP | -0.0718
RRIRKRPPRLPRPRPRPTGVPRP | 0.00874
RRIRGRPPRLPRPRPRPQEHPRP | 0.146
RRIRSRPPRLPRPRPRPDSAPRP | 0.0412
RRIRTRPPRLPRPRPRPVGMPRP | -0.388
RRIRDRPPRLPRPRPRPIRSPRP | -0.00822
RRIRMRPPRLPRPRPRPCLAPRP | 0.215
RRIRRRPPRLPRPRPRPMPQPRP | 0.376
RRIRSRPPRLPRPRPRPDYDPRP | -0.0947
RRIRYRPPRLPRPRPRPAICPRP | 0.0426
